The series addresses T1, NRF1 (GST-NRF1, unphosphorylated) (Homo sapiens, UniProt Q16656 1-503).
T1 sequence: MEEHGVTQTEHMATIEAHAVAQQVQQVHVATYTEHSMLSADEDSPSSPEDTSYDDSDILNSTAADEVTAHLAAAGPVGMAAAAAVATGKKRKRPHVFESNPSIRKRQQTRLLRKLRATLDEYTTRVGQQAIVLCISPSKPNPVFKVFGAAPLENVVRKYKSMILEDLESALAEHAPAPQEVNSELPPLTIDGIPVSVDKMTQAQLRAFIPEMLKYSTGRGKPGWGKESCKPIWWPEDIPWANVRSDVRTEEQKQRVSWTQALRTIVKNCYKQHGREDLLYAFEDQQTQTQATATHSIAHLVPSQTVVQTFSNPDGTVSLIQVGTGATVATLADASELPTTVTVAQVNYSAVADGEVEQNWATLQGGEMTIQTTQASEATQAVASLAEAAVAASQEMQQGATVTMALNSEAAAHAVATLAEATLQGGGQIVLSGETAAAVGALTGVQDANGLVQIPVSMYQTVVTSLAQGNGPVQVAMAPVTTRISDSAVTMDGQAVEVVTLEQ
Description: EMSA; 1-3 ug protein, poly[d(I-C)]; concentration-dependent; 5 mM Hepes pH 8.0, 20 nM DTT (so in the source), 30 mM NaCl, 10 ng DIG probe, 1 ug poly[d(I-C)], 0.5-2 ug GST-NRF1 (Methods; legend 1-3 ug), 5 min RT; 6% native TBE-PAGE, 0.5x TBE pH 8.3, 4 C. The note with it: protein: recombinant; tags: N-terminal GST (pGEX6P1); chain copies: 2; label: DIG (DIG 3'-end labeling kit named); blunt.

B1: Ehmt1 promoter probe (PKO 5019/PKO 5020) (dsDNA)
DNA 1: GCCACCTGGCCTCGCCTCCAGACGCAGGCGCCGCACGGGTGGGTC
DNA 2: GACCCACCCGTGCGGCGCCTGCGTCTGGAGGCGAGGCCAGGTGGC
Consider B1, for which the binding result was “binds”.

The values are drawn from article PMC6719441, “CDK2 regulates the NRF1/Ehmt1 axis during meiotic prophase I”.
